According to article PMC3847324, “Jun dimerization protein 2 is a critical component of the Nrf2/MafK complex regulating the response to ROS homeostasis”:

Assays:
IVT-Nrf2;IVT-JDP2 = target: T1, IVT-Nrf2;IVT-JDP2 (;mouse, UniProt Q60795;P97875 1-597;1-163, |); test: EMSA; EMSA: 5 ug GST fusion or 10 ng IVT protein, 25 C 30 min; 5% native PAGE in 0.5x TBE at 4 C; binding buffer, salt and pH not given; conditions: protein: ivt;ivt; tags: ;; copies: 1;1; label: 32P 5' end (T4 kinase) as probe; blunt
T1 sequence 1: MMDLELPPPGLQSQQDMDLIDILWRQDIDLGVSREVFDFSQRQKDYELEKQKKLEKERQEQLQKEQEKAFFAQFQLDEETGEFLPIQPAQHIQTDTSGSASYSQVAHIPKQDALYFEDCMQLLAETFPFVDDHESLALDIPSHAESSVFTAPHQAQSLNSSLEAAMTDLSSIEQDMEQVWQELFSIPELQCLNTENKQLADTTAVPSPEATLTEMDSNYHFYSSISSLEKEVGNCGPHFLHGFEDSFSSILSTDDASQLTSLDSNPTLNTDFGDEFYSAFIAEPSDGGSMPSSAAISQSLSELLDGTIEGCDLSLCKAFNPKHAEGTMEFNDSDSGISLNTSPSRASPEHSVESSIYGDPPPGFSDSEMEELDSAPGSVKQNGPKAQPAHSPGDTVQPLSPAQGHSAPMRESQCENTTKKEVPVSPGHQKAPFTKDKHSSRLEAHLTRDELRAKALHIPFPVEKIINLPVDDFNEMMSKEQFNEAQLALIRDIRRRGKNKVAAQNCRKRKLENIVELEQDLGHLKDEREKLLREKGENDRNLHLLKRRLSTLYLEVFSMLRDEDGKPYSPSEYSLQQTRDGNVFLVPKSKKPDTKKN
T1 sequence 2: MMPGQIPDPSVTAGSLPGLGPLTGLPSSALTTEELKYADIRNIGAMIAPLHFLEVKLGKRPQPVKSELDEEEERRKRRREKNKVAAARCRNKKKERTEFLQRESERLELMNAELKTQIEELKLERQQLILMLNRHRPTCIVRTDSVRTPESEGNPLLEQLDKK

[1] = target: IVT-Nrf2;IVT-JDP2;IVT-MafK (;mouse;rat, UniProt Q60795;P97875;Q8K4B3 1-597;1-163;1-156, ||); test: EMSA; large complex with higher DNA-binding activity; EMSA: 5 ug GST fusion or 10 ng IVT protein, 25 C 30 min; 5% native PAGE in 0.5x TBE at 4 C; binding buffer, salt and pH not given; conditions: tags: ;;, label: 32P 5' end (T4 kinase) as probe, blunt

B1: human NQO1-ARE WT (dsDNA)
DNA 1: CAGTCACAGTGACTCAGCAGAATCT
DNA 2: AGATTCTGCTGAGTCACTGTGACTG
binding result (IVT-Nrf2;IVT-JDP2): binds | binding result [1]: binds
